Test results as given in paper PMC4191155, “FaPOD27 functions in the metabolism of polyphenols in strawberry fruit (Fragaria sp.)” (Frontiers in Plant Science, 2014).

Tests used:
[1] = target: T1, FaPOD27 (Fragaria x ananassa, UniProt J7IER7); test: LC-UV-ESI-MSn product identification; type: biochemical; details: H2O2, sodium tartrate pH 3.5, room temperature; crude E. coli protein
T1 construct: GST fusion, E. coli, crude protein
T1 sequence (J7IER7 1-329): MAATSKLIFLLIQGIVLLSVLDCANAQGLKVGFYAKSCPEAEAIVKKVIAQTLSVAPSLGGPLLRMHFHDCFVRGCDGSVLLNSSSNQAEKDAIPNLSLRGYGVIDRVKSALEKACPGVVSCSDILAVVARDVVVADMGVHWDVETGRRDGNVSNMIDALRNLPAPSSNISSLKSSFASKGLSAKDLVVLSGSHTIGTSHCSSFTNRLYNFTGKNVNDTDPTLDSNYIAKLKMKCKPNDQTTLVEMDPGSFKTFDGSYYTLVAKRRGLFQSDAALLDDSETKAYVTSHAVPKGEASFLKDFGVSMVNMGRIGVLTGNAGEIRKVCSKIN

[2] = target: T2, FaCAD (Fragaria x ananassa, UniProt J7IAL0); test: LC-UV-ESI-MSn product identification; type: biochemical; details: NADPH 200 μM, coniferaldehyde 100 μM, sodium phosphate pH 6.5, 30 °C; crude yeast protein
T2 construct: full-length ORF 1077 bp, 359 aa, 39 kDa; pYES2 in S. cerevisiae INVSc1, crude protein
T2 sequence (J7IAL0 1-359): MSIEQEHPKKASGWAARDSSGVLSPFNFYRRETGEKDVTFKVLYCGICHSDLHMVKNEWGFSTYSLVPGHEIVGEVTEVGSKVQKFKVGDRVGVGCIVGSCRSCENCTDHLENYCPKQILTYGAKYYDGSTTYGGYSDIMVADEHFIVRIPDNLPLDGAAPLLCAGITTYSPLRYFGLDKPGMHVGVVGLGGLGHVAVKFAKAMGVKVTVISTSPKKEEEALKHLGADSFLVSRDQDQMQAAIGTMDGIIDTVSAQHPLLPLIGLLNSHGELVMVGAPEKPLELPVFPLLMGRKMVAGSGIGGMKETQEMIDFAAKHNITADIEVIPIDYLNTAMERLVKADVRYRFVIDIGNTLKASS

[3] = substrate: CC(C)(COP(=O)(O)OP(=O)(O)OC[C@H]1O[C@@H](n2cnc3c(N)ncnc32)[C@H](O)[C@@H]1OP(=O)(O)O)[C@@H](O)C(=O)NCCC(=O)NCCSC(=O)/C=C/c1ccc(O)cc1; test: spectrophotometric CCR assay; type: biochemical, Fragaria x ananassa; details: NADPH, sodium phosphate, pH optimum 6, 25 °C, apparent Km
Text: (§1) spectrophotometric CCR assay on GST-FaCCR

[4] = substrate: COc1cc(/C=C/C(=O)SCCNC(=O)CCNC(=O)[C@H](O)C(C)(C)COP(=O)(O)OP(=O)(O)OC[C@H]2O[C@@H](n3cnc4c(N)ncnc43)[C@H](O)[C@@H]2OP(=O)(O)O)ccc1O; test: spectrophotometric CCR assay; type: biochemical, Fragaria x ananassa; details: NADPH, sodium phosphate, pH optimum 6, 25 °C, apparent Km
Text: as §1

[5] = substrate: CC(C)(COP(=O)(O)OP(=O)(O)OC[C@H]1O[C@@H](n2cnc3c(N)ncnc32)[C@H](O)[C@@H]1OP(=O)(O)O)[C@@H](O)C(=O)NCCC(=O)NCCSC(=O)/C=C/c1ccc(O)c(O)c1; test: spectrophotometric CCR assay; type: biochemical, Fragaria x ananassa; details: NADPH, sodium phosphate, pH optimum 6, 25 °C, apparent Km
Text: as §1

COc1cc(/C=C/CO)ccc1O [coniferyl alcohol]
LC-UV-ESI-MSn product identification [1]: ferulic acid and coniferyl alcohol were almost completely oxidized in the presence of H2O2

COc1cc(/C=C/C(=O)O)ccc1O [ferulic acid]
LC-UV-ESI-MSn product identification [1]: ferulic acid and coniferyl alcohol were almost completely oxidized in the presence of H2O2

COc1cc(/C=C/C=O)ccc1O [coniferaldehyde]
LC-UV-ESI-MSn product identification [2]: FaCAD was expressed in yeast cells and showed that coniferyl alcohol was generated

B1: GST-FaCCR (Fragaria x ananassa) (protein)
chain: MPVDNCSSLSGHGQTVCVTGAGGFFASWLVKLLLERGYNVRGTVRNPEDPKNAHLRELEGAKERLSLRKADLLDFESLKEAINGCDGVFHTASPVTDDPEQMVEPAVNGTKNVIVAAAEAKVKRVVFTSSIGAVYMDPARGPDVVVDESCWSDLEFCKNTKNWYCYGKAVAEQAAWEEAKERGVDLVVVNPVLVLGPLLQPTINASIIHILKYLTGSAKTYANSVQAYVHVKDVALAHILVYETPSASGRYLCAESVLHRGDVVEILAKFFPEYPIPSKLKDDGKPRAIPYKFSNQKLQDLGLEFTSVKQSLYDTVKSLQEKGHLKVPTKQEEDSFKIQ
Km [3]: 24.75 ± 1.23 µM | kcat/Km [3]: 1.07 M⁻¹ s⁻¹ | Km [4]: 16.11 ± 1.39 µM | kcat/Km [4]: 145 M⁻¹ s⁻¹ | Km [5]: 25.48 ± 0.82 µM | kcat/Km [5]: 1.15 M⁻¹ s⁻¹
